Laboratory results from doi:10.1101/298455 (bioRxiv, 2018).

Target: human eIF4E (human, UniProt P06730 1-217)
Experiment: ELISA

human eIF4E, sequence (P06730 whole entry): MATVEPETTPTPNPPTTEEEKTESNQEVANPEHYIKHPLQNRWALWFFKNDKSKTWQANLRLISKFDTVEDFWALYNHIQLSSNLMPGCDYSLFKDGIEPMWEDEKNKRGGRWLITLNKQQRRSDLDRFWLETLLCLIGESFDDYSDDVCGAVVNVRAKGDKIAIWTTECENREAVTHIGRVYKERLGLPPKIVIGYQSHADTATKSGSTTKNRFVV

Binder: RKKGKGKGTTVGMGKSSRRFINMYGF [GST-VPg5 fusion protein]
- binding result: binds
